# B1: NRC3_random_hg19_419_o1 (dsDNA)
# DNA 1: GCAGAGCAGACTTCCTGTGTATGTTAGGATGAAACCGCGATTGACAGCGTAGAATGAAGG
# DNA 2: CCTTCATTCTACGCTGTCAATCGCGGTTTCATCCTAACATACACAGGAAGTCTGCTCTGC
# B2: NRC3_wobSeed117_DR4_A23T_o1 (dsDNA)
# DNA 1: GCCGTCAAAGTTCAACTAAGGTTACGTAAAGCACGCGCGATTGACAGCGTAGAATGAAGG
# DNA 2: CCTTCATTCTACGCTGTCAATCGCGCGTGCTTTACGTAACCTTAGTTGAACTTTGACGGC
# B3: NRC3_wobSeed113_DR4_G15A_o1 (dsDNA)
# DNA 1: GCATATGTAGGTTAACTGGGGTCATTCAGACTAGGCGCGATTGACAGCGTAGAATGAAGG
# DNA 2: CCTTCATTCTACGCTGTCAATCGCGCCTAGTCTGAATGACCCCAGTTAACCTACATATGC
# B4: NRC3_wobSeed114_DR4_C22T_o1 (dsDNA)
# DNA 1: GCAATACAGGGTCATCGTAGGTCAGAGTACGCACAGGCGATTGACAGCGTAGAATGAAGG
# DNA 2: CCTTCATTCTACGCTGTCAATCGCCTGTGCGTACTCTGACCTACGATGACCCTGTATTGC
# B5: NRC3_wobSeed77_DR3_T22C_o1 (dsDNA)
# DNA 1: GCACTTACGGGTCAACGAGGTCATAGCACGCGTATAGCGATTGACAGCGTAGAATGAAGG
# DNA 2: CCTTCATTCTACGCTGTCAATCGCTATACGCGTGCTATGACCTCGTTGACCCGTAAGTGC
# B6: NRC3_wobSeed119_DR4_G23C_o1 (dsDNA)
# DNA 1: GCGGAACGAGGGCATTCGAGTTCATAGCATGGCGATGCGATTGACAGCGTAGAATGAAGG
# DNA 2: CCTTCATTCTACGCTGTCAATCGCATCGCCATGCTATGAACTCGAATGCCCTCGTTCCGC
# B7: NRC3_wobSeed120_DR4_G22T_o1 (dsDNA)
# DNA 1: GCCCGAGTAGGTTACGAGGGGTCATTCAGTGCGAATGCGATTGACAGCGTAGAATGAAGG
# DNA 2: CCTTCATTCTACGCTGTCAATCGCATTCGCACTGAATGACCCCTCGTAACCTACTCGGGC
# B8: NRC3_random_hg19_103_o1 (dsDNA)
# DNA 1: GCTCAGGAGTTCGAGAACAGCCTGGCTAACATGGCGGCGATTGACAGCGTAGAATGAAGG
# DNA 2: CCTTCATTCTACGCTGTCAATCGCCGCCATGTTAGCCAGGCTGTTCTCGAACTCCTGAGC
# B9: NRC3_random_hg19_322_o1 (dsDNA)
# DNA 1: GCTGTAAAGTGGTCCACTGACAGCTTCCACTCTTCTGCGATTGACAGCGTAGAATGAAGG
# DNA 2: CCTTCATTCTACGCTGTCAATCGCAGAAGAGTGGAAGCTGTCAGTGGACCACTTTACAGC
# Legend:
# [1] = biological target: FXR:RXRa (Homo sapiens, UniProt Q96RI1;P19793 full;full); assay: no ligand; PBM; 270 nM : 90 nM RXRa; PBS pH 7.4, 2% milk, 0.02% Triton X-100, 1 mM DTT, BSA, 0.4 mg/ml salmon testes DNA; settings: tags: His kept;His cleaved; copies: 1;1; label: surface-attached array probe
# FXR:RXRa, sequence (Q96RI1 whole entry, chain 1 of 2): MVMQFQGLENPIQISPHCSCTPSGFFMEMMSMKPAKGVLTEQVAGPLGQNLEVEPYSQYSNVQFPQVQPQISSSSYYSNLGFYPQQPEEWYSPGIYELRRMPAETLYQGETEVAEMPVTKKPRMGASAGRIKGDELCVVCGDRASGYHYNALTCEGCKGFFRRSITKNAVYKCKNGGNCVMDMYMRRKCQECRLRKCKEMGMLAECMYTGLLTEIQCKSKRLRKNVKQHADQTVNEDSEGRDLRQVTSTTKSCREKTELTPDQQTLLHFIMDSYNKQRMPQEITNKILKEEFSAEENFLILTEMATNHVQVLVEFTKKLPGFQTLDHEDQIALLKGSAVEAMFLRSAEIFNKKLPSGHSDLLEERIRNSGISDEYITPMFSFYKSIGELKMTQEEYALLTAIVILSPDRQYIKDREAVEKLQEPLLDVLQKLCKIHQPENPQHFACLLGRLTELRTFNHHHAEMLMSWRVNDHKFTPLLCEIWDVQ
# FXR:RXRa, sequence (P19793 whole entry, chain 2 of 2): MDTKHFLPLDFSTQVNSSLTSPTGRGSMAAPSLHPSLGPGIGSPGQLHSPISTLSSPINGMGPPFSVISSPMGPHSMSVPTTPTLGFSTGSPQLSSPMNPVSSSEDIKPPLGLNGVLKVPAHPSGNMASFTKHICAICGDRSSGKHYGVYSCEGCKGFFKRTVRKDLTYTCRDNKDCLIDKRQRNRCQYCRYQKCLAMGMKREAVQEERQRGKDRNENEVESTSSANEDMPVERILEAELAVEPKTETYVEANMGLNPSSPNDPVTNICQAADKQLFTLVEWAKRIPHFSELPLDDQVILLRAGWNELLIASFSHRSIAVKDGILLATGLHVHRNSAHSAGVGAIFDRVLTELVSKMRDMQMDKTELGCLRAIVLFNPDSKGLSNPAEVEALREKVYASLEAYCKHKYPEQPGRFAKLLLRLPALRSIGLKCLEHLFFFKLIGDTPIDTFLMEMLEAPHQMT
# Method in brief: (§1)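 Binding z-scores were set against random background probes. The data came from custom Agilent 4×180K protein-binding microarrays carrying double-stranded probes with 34-nt variable regions, incubated 1 h with ligand-free nuclear receptor dimers. Partner-specific antibodies detected binding, and scanned fluorescence was regression-normalized.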
# [2] = biological target: LXRa:RXRa (Homo sapiens, UniProt Q13133;P19793 full;full); assay: as above; settings: tags: His kept;His cleaved; copies: 1;1; label: surface-attached array probe
# LXRa:RXRa, sequence (Q13133 whole entry, chain 1 of 2): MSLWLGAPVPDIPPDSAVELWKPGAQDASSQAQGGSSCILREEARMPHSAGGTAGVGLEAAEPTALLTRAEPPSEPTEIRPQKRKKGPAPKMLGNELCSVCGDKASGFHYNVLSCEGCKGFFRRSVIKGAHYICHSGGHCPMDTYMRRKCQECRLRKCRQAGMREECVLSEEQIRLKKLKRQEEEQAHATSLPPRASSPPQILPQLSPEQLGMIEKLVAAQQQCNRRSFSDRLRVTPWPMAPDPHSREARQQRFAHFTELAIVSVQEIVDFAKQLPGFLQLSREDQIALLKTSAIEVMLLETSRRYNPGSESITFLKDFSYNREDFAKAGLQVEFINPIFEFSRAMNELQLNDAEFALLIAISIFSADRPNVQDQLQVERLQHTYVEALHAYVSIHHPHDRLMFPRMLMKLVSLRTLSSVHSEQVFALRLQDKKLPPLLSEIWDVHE
# LXRa:RXRa, sequence (P19793 whole entry, chain 2 of 2): as the sequence (P19793 whole entry, chain 2 of 2) above
# Method in brief: as §1
# [3] = biological target: PXR:RXRa (Homo sapiens, UniProt O75469;P19793 full;full); assay: as above; settings: tags: His kept;His cleaved; copies: 1;1; label: surface-attached array probe
# PXR:RXRa, sequence (O75469 whole entry, chain 1 of 2): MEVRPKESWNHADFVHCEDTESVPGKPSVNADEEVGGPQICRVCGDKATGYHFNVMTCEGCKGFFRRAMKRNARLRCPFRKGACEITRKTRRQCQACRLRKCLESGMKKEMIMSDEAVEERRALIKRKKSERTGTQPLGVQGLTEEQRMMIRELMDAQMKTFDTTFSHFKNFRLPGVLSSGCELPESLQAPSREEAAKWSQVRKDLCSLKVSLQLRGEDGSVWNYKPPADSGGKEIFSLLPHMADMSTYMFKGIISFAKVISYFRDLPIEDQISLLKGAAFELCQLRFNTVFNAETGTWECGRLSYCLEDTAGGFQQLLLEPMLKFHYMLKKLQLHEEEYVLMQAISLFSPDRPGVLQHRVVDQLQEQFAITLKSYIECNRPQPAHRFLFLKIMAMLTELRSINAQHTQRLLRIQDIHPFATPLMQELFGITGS
# PXR:RXRa, sequence (P19793 whole entry, chain 2 of 2): as the sequence (P19793 whole entry, chain 2 of 2) above
# Method in brief: as §1
# [4] = biological target: THRa:RXRa (Homo sapiens, UniProt P10827;P19793 full;full); assay: no ligand; PBM; 90 nM : 90 nM RXRa; PBS pH 7.4, 2% milk, 0.02% Triton X-100, 1 mM DTT, BSA, 0.4 mg/ml salmon testes DNA; settings: tags: His kept;His cleaved; copies: 1;1; label: surface-attached array probe
# THRa:RXRa, sequence (P10827 other isoform, or with tags, fused parts or gaps, chain 1 of 2): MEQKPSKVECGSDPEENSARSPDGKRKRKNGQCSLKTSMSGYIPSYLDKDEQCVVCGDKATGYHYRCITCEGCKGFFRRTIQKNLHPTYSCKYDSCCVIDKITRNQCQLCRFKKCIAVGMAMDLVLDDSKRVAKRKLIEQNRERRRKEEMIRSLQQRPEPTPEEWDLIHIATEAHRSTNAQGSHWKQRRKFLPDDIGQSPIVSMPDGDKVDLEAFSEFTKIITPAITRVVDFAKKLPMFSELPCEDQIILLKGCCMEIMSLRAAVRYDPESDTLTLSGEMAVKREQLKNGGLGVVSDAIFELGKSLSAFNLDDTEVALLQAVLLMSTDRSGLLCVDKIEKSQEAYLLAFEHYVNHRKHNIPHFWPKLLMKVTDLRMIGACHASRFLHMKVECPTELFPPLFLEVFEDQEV
# THRa:RXRa, sequence (P19793 whole entry, chain 2 of 2): as the sequence (P19793 whole entry, chain 2 of 2) above
# [5] = biological target: VDR:RXRa (Homo sapiens, UniProt P11473;P19793 full;full); assay: no ligand; PBM; 270 nM : 90 nM RXRa; PBS pH 7.4, 2% milk, 0.02% Triton X-100, 1 mM DTT, BSA, 0.4 mg/ml salmon testes DNA; settings: tags: His kept;His cleaved; copies: 1;1; label: surface-attached array probe
# VDR:RXRa, sequence (P11473 whole entry, chain 1 of 2): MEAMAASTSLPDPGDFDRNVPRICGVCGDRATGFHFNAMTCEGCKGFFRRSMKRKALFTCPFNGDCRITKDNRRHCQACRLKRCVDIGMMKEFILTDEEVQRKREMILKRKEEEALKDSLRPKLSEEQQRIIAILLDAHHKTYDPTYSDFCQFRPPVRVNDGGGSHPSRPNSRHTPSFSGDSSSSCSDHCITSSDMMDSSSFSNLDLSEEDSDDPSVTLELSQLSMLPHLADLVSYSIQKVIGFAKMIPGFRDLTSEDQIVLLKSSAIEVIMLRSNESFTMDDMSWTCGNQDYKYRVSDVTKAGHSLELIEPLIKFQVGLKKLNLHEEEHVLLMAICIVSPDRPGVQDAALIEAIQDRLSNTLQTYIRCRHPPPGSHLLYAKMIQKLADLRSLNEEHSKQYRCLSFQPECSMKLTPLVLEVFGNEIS
# VDR:RXRa, sequence (P19793 whole entry, chain 2 of 2): as the sequence (P19793 whole entry, chain 2 of 2) above
# Method in brief: as §1
# [6] = biological target: LXRb:RXRa (Homo sapiens, UniProt P55055;P19793 full;full); assay: as above; settings: tags: His kept;His cleaved; copies: 1;1; label: surface-attached array probe
# LXRb:RXRa, sequence (P55055 whole entry, chain 1 of 2): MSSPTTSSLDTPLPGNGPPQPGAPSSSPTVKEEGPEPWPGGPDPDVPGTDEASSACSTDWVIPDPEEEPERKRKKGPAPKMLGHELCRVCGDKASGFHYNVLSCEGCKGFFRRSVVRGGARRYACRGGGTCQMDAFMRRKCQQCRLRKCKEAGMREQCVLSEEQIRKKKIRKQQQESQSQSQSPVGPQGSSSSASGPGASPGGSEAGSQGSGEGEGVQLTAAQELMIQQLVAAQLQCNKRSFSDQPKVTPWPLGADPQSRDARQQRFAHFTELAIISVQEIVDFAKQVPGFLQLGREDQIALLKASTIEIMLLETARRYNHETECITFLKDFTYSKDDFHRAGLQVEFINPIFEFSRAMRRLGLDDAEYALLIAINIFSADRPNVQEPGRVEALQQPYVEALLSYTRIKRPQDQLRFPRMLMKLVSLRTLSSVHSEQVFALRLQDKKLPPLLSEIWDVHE
# LXRb:RXRa, sequence (P19793 whole entry, chain 2 of 2): as the sequence (P19793 whole entry, chain 2 of 2) above
# Method in brief: as §1
# [7] = biological target: RXRa (Homo sapiens, UniProt P19793); assay: no ligand; PBM; 180 nM; PBS pH 7.4, 2% milk, 0.02% Triton X-100, 1 mM DTT, BSA, 0.4 mg/ml salmon testes DNA; settings: tags: His cleaved; chain copies: 2; label: surface-attached array probe
# RXRa, sequence (P19793 whole entry): as the sequence (P19793 whole entry, chain 2 of 2) above
Binder,binding signal [1],binding signal [2],binding signal [3],binding signal [4],binding signal [5],binding signal [6],binding signal [7]
B1,-0.65 PBM z-score against 500 random probes,-0.87 PBM z-score against 500 random probes,-0.62 PBM z-score against 500 random probes,-0.56 PBM z-score against 500 random probes,–,–,–
B2,–,7.31 PBM z-score against 500 random probes,6.82 PBM z-score against 500 random probes,5.54 PBM z-score against 500 random probes,–,–,–
B3,–,7.87 PBM z-score against 500 random probes,6.99 PBM z-score against 500 random probes,5.49 PBM z-score against 500 random probes,7.19 PBM z-score against 500 random probes,6.88 PBM z-score against 500 random probes,–
B4,–,7.62 PBM z-score against 500 random probes,6.36 PBM z-score against 500 random probes,5.25 PBM z-score against 500 random probes,–,6.24 PBM z-score against 500 random probes,–
B5,–,–,6.59 PBM z-score against 500 random probes,4.97 PBM z-score against 500 random probes,8.66 PBM z-score against 500 random probes,6.07 PBM z-score against 500 random probes,7.88 PBM z-score against 500 random probes
B6,–,6.87 PBM z-score against 500 random probes,7.11 PBM z-score against 500 random probes,4.79 PBM z-score against 500 random probes,7.03 PBM z-score against 500 random probes,–,–
B7,–,8.11 PBM z-score against 500 random probes,6.59 PBM z-score against 500 random probes,4.77 PBM z-score against 500 random probes,6.94 PBM z-score against 500 random probes,7.35 PBM z-score against 500 random probes,–
B8,–,0.13 PBM z-score against 500 random probes,0.28 PBM z-score against 500 random probes,-0.5 PBM z-score against 500 random probes,–,–,–
B9,–,–,-0.56 PBM z-score against 500 random probes,-0.7 PBM z-score against 500 random probes,-0.74 PBM z-score against 500 random probes,-0.71 PBM z-score against 500 random probes,–
